The target in this experiment is T1, Biotinylated N-Avitagged-TEAD4^217-434 (UniProt Q15561 217-434, biotin (biotinylated Avitag)).
T1 chain: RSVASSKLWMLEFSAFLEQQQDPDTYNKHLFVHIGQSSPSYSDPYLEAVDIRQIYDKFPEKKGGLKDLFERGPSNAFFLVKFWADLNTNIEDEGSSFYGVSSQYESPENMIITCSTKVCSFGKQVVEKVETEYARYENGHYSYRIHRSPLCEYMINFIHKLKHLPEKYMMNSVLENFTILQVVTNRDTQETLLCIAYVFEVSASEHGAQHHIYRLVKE
In words: FRET.

B1: YAP^50-171 (domain or fragment)
chain: AGHQIVHVRGDSETDLEALFNAVMNPKTANVPQTVPMRLRKLPDSFFKPPEPKSHSRQASTDAGTAGALTPQHVRAHSSPASLQLGAVSPGTLTPTGVVSGPAATPTAQHLRQSSFEIPDDV
Take B1: the IC50 (in general, the concentration needed to halve the response being measured) was 11 nM.

B2: YAP^50-171 with a cysteine inserted at position 172 (domain or fragment)
chain: AGHQIVHVRGDSETDLEALFNAVMNPKTANVPQTVPMRLRKLPDSFFKPPEPKSHSRQASTDAGTAGALTPQHVRAHSSPASLQLGAVSPGTLTPTGVVSGPAATPTAQHLRQSSFEIPDDVC
Molecule B2 had an IC50 of 7 nM.
